Laboratory results published in patent US20110047631A1 (MEDICAL COLLEGE OF GEORGIA RESEARCH INSTITUTE, published 2011).

Target: T1, purified wild-type tau441 (UniProt P10636-8 1-441)
T1 construct: The 441-residue isoform, not the canonical UniProt entry length; Used at 2 uM; also called purified tau 441; purified tau
Assay: purified wild-type tau441 and purified Hsp110 incubated together, immunoprecipitation, immunoblot
Method: As the data in FIG. 6 indicates, Hsp110 is present in tau immunocomplexes; however, it is not clear whether the interaction is direct or indirect. In order to determine whether Hsp110 interacts with tau directly, we incubated purified wild-type tau441 and Hsp110 and subjected them to immunoprecipitation analyses.

T1 sequence (P10636 other isoform, or with tags, fused parts or gaps limits assumed): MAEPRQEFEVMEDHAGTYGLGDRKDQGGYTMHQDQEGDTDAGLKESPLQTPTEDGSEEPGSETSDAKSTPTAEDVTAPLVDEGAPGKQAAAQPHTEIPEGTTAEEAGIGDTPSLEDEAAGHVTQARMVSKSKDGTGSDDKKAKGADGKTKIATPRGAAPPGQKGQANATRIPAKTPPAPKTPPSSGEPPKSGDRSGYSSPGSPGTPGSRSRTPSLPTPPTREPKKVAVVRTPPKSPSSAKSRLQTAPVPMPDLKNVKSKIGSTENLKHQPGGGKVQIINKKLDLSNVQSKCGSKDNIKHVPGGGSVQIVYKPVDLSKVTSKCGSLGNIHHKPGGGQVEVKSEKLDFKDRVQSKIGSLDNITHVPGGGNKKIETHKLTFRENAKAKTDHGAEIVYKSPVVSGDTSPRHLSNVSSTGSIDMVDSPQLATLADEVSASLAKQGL

B1: purified full-length Hsp110 (human) (other, UniProt Q92598 2-858, looked up)
chain: SVVGLDVGSQSCYIAVARAGGIETIANEFSDRCTPSVISFGSKNRTIGVAAKNQQITHANNTVSNFKRFHGRAFNDPFIQKEKENLSYDLVPLKNGGVGIKVMYMGEEHLFSVEQITAMLLTKLKETAENSLKKPVTDCVISVPSFFTDAERRSVLDAAQIVGLNCLRLMNDMTAVALNYGIYKQDLPSLDEKPRIVVFVDMGHSAFQVSACAFNKGKLKVLGTAFDPFLGGKNFDEKLVEHFCAEFKTKYKLDAKSKIRALLRLYQECEKLKKLMSSNSTDLPLNIECFMNDKDVSGKMNRSQFEELCAELLQKIEVPLYSLLEQTHLKVEDVSAVEIVGGATRIPAVKERIAKFFGKDISTTLNADEAVARGCALQCAILSPAFKVREFSVTDAVPFPISLIWNHDSEDTEGVHEVFSRNHAAPFSKVLTFLRRGPFELEAFYSDPQGVPYPEAKIGRFVVQNVSAQKDGEKSRVKVKVRVNTHGIFTISTASMVEKVPTEENEMSSEADMECLNQRPPENPDTDKNVQQDNSEAGTQPQVQTDAQQTSQSPPSPELTSEENKIPDADKANEKKVDQPPEAKKPKIKVVNVELPIEANLVWQLGKDLLNMYIETEGKMIMQDKLEKERNDAKNAVEEYVYEFRDKLCGPYEKFICEQDHQNFLRLLTETEDWLYEEGEDQAKQAYVDKLEELMKIGTPVKVRFQEAEERPKMFEELGQRLQHYAKIAADFRNKDEKYNHIDESEMKKVEKSVNEVMEWMNNVMNAQAKKSLDQDPVVRAQEIKTKIKELNNTCEPVVTQPKPKIESPKLERTPNGPNIDKKEEDLEDKNNFGAEPPHQNGECYPNEKNSVNMDLD
notes: mature; used at 2 uM; also called purified Hsp110
B1: binds.
